Source: US20200324099A1, “ACOUSTIC WAVE MEDIATED NON-INVASIVE DRUG DELIVERY” (Mupharma Pty Ltd, priority 2016, published 2020)
Where a name gives a salt, the structure may show the parent alone. Read-outs that look alike come from different tables or passages of the source.

Key:
[1] = SAW (30 MHz) perfusion of FITC-Albumin and Fluorescein in pig lip tissue (Example Three); assay type: in vitro ADME; conditions: for perfusion into pig lip tissue with SAW: SAW 30 MHz, different exposure times and powers; for passive diffusion into pig lip tissue (control sample): no SAW
Source text: In this set of experiments, the effect of surface acoustic wave (SAW) at 30 MHz on FITC-Albumin and Fluorescein perfusion for different SAW powers and operating time was investigated.
Fluorescein sodium salt and FITC-Albumin were purchased from Sigma-Aldrich, Australia. Fresh porcine lips were obtained from diamond valley pork abattoir (Laverton, Melbourne) prior to the experiments. Surface acoustic wave (SAW) chip patterning of Chromium and Aluminum interdigital transducers (IDT) were fabricated using standard lithographic techniques at Micro Nano Research Facility (MNRF), RMIT University.
The lips were wrapped in sterile gauze saturated in Krebs buffer during transportation to maintain the viability of the tissues. […] The porcine lips were exposed to various molecules with and without the surface acoustic waves (SAW). The lips were washed immediately after the experiments to get rid of any reminent targeting molecules.
Samples were wrapped in aluminium foil and stored at −80 degree until dermatomed. The tissues were dermatomed in a cryostat at a thickness of 50-micron layer until 1 mm for extensive penetration studies.
Tissue sectioning was performed at RMIT Bundoora and Melbourne University campuses. Fluorescent images of the samples were obtained using optical microscope (×10 lens), consistent light exposure of 600 ms. Acquired images were then quantified using ImageJ software to calculate the normalized pixel intensity of the green channel.
The model drug (FITC-albumin and fluorescein) used was placed directly on the device throughout the experiments. Fresh lips were approximately dissected into a 1 cm*1 cm cube and was placed on the drug. No coupling agent or loading substrate was used to transmit the vibrations from device into tissues. The inter-digital electrodes (IDTs) patterned on the lithium niobate (piezoelectric substrate) generated surface waves (SAW), which in turn drives the model drugs into the tissues. (FIG. 12)

[2] = rat, in vivo
Protocol: All experiments were conducted in accordance with the ARVO Statement for Use of Animals in Ophthalmic and Vision Research and with approval from the ANU Animal Experimentation Ethics Committee (Ethics ID: A2014/56). Adult Wistar rats were utilised in all experiments, which were born and reared under normal lighting conditions (˜5 lux light) and aged between 90 and 120 post-natal days at the time of use. Wistar rats were anaesthetised with an intraperitoneal injection of ketamine (100 mg/kg; Troy Laboratories, NSW, Australia) and Xylazil (12 mg/kg; Troy Laboratories). Once anaesthetised, Systane eye drops (Alcon, TX, USA) were applied every 2 minutes to maintain corneal lubrication. Animals were placed on a heat blanket to maintain body temperature at 37° C. and a cotton eye loop was applied around the eye to expose the anterior surface.
The inventors' HFB device (with A.A Lab Systems A-301 HS HV amplifier and RIGOL DG4062 Function/Arbitrary Waveform Generator) was loaded with 0.2% Riboflavin-5-phosphate-sodium (Riboflavin-5-phosphate-sodium-5-phosphate sodium #30-1598-25GM; PCCA, TX, USA), made up in sterile saline (0.9% NaCl), and applied to the centre of the cornea for 5 minutes. The settings on the device were as follows: transducer—1.6 MHz; amplifier—DC offset=off position; waveform generator—60 KHz sine waveform. The device was run for 5 minutes at 0, 3, 11 or 13 voltage peak to peak (VPP). […] Therefore, an electric circuit between the device and the eye tissue was not created.
Following delivery, the residual Riboflavin-5-phosphate-sodium was washed from the eye with normal saline. The animal was euthanized, the eyes removed and the eyes fixed in 4% paraformaldehyde for 5 minutes before being cryopreserved and immediately sectioned at 16 μm thickness.
Sections were visualised under a Nikon A1 confocal microscope using the green 488 channel and imaged using the 10× objective. Data analysis for quantification was performed with an n=3 with 8 regions per section, with the gain of the laser set to optimal fluorescence for the brightest section (gain setting 110) and maintained for all imaging.

[3] = for SAW samples pixel intensity: SAW approximately 4V; for SAW samples pixel intensity / Control samples pixel intensity: 5 s exposure, 30 μg/ml; for Control samples pixel intensity: no acoustic waves (0 mV)
Protocol: The SAW device 10 illustrated in FIG. 1 was used to controllably deliver albumin-fluorescein isothiocyanate (FITC-albumin) across epithelial membranes of pig lips. Fresh lips tissues from pigs were obtained from a slaughterhouse. The experiments were conducted within 2 hours after the animals were sacrificed. The porcine lips were exposed to FITC-albumin molecules with and without the acoustic waves. The exposure time was 5 s for both control and SAW experiments. The power or voltage was maintained at 0 mV (no voltage) for control, and approximately 4V for SAW experiments. The concentration and the amount of FITC-Albumin (30 μg/ml) used was maintained constant throughout the penetration depth study.
The fresh tissues were further snap frozen in isopentane chilled by liquid nitrogen with the aid of optimal cutting temperature compound (OCT) as the embedding medium. Samples were further wrapped in aluminium foil and stored at −80° C. until sectioned by a dermatome. The tissues were sectioned by a dermatome in a cryostat to create samples of contiguous layers of tissue of 50 μm thickness.
Fluorescent images of the samples were obtained and quantified using Image J software to calculate the normalised pixel intensity of the green channel.

**Q.** With `O=C1OC2(c3ccc(O)cc3Oc3cc(O)ccc32)c2ccccc21` [Fluorescein, Fluorescein sodium salt] as the compound, how does the “perfusion into pig lip tissue with SAW” value [1] read?
**A.** The value was “showed an improvement, especially for longer exposure time”.

**Q.** And the “passive diffusion into pig lip tissue (control sample)” value [1]?
**A.** The value was “prevalent”.

**Q.** With `Cc1cc2nc3c(=O)[nH]c(=O)nc-3n(C[C@H](O)[C@H](O)[C@H](O)COP(=O)([O-])O)c2cc1C.[Na+]` [Riboflavin-5-phosphate-sodium] as the compound, how does the “concentrations in posterior iris, ciliary body and choroid” value [2] read?
**A.** Its value is “significant concentrations”.

**Q.** And the “delivery to the posterior segment of the eye” value [2]?
**A.** The value was “concentrated in the uveal tract”.

**Q.** What about the “fluorescence in anterior chamber and vitreous” value [2] of the same compound?
**A.** Its value is “did not show any fluorescence”.

**Q.** And the “increase in average relative fluorescence intensity (RFI), treated versus control cornea” value [2]?
**A.** Its value is roughly 4 times.

**Q.** What does the source list for “albumin-fluorescein isothiocyanate [FITC-albumin]”?
**A.** perfusion into pig lip tissue with SAW [1]: outstanding perfusion compared to passive diffusion; passive diffusion into pig lip tissue (control sample) [1]: hardly any diffusion; depth of delivery across the epithelial layers of the pig lips ([3]; SAW device, 5 s, tissue deeper than 500 μm not examined): 500 μm; diffusion through the layers of the pig lips ([3]; control, no acoustic waves, 5 s): diffused evenly and uniformly through the layers of the pig lips; SAW samples pixel intensity ([3]; layer 100 μm): 37.192; Control samples pixel intensity ([3]; layer 100 μm): 7.52; SAW samples pixel intensity ([3]; layer 150 μm): 19.733; Control samples pixel intensity ([3]; layer 150 μm): 7.421; SAW samples pixel intensity ([3]; layer 200 μm): 19.835; Control samples pixel intensity ([3]; layer 200 μm): 6.617; SAW samples pixel intensity ([3]; layer 250 μm): 14.041; Control samples pixel intensity ([3]; layer 250 μm): 6.126; SAW samples pixel intensity ([3]; layer 300 μm): 11.229; Control samples pixel intensity ([3]; layer 300 μm): 7.488; SAW samples pixel intensity ([3]; layer 350 μm): 16.047; Control samples pixel intensity ([3]; layer 350 μm): 7.405; SAW samples pixel intensity ([3]; layer 400 μm): 12.274; Control samples pixel intensity ([3]; layer 400 μm): 7.589; SAW samples pixel intensity ([3]; layer 450 μm): 9.935; Control samples pixel intensity ([3]; layer 450 μm): 6.886; SAW samples pixel intensity ([3]; layer 500 μm): 9.958; Control samples pixel intensity ([3]; layer 500 μm): 7.715
